Laboratory results published in patent publication US20200024330A1.

Legend:
Experiment in all cases: cell-based or functional assay
[1] = molecular target: HIV-1 92RW020 envelope protein (Env) on pseudovirus (HIV-1)
[2] = molecular target: HIV-1 MGRM-F1-006 Env (pseudovirus) (HIV-1)
[3] = molecular target: HIV-1 Env of isolate MGRM-AE-002 (HIV-1)
[4] = molecular target: HIV-1 Env of pseudovirus MGRM-Chronic-B-004, clade B (HIV-1)
[5] = molecular target: HIV-1 Env of pseudovirus APV_6, clade B (HIV-1)
[6] = molecular target: HIV-1 92RW009 envelope glycoprotein (Env) (HIV-1)
[7] = molecular target: HIV-1 Env of isolate 92UG046 (clade D) (HIV-1)
[8] = molecular target: HIV-1 NL43 envelope protein (Env) on pseudovirus (HIV-1)
[9] = molecular target: HIV-1 Env of pseudovirus TRO.11 (Acute), clade B (HIV-1)
[10] = molecular target: HIV-1 MGRM-F1-015 Env (pseudovirus) (HIV-1)
[11] = molecular target: HIV-1 MGRM-F1-018 Env (pseudovirus) (HIV-1)
[12] = molecular target: HIV-1 Env of isolate MGRM-G-011 (clade G pseudovirus) (HIV-1)
[13] = molecular target: HIV-1 MGRM-C-019 Env (HIV-1)
[14] = molecular target: HIV-1 Env of pseudovirus JRCSF, clade B (HIV-1) (UniProt P20871)
[15] = molecular target: HIV-1 Env of pseudovirus SC422661.8 (Acute), clade B (HIV-1)
[16] = molecular target: HIV-1 MGRM-C-004 Env (HIV-1)
[17] = molecular target: HIV-1 MGRM-C-023 Env (HIV-1)
[18] = molecular target: HIV-1 Env of pseudovirus APV_13, clade B (HIV-1)
[19] = molecular target: HIV-1 93IN905 envelope protein (Env) on pseudovirus (HIV-1)

1443_C16 (PG16) (TCN-116) (antibody), sequence (VH): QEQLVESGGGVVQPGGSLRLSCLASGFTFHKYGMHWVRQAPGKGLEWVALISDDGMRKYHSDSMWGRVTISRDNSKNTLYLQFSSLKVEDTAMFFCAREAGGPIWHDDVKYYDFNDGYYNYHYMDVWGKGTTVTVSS
1443_C16 (PG16) (TCN-116) (antibody), sequence (VL): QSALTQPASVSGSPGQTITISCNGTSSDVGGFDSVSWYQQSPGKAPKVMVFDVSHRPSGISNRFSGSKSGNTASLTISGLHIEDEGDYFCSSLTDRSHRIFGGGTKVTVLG

Row | Substance | neutralization IC50 [1] | IC50 (µg/ml), pseudovirus neutralization [2] | IC50 (µg/ml), pseudovirus neutralization [3] | IC50 (µg/ml), pseudovirus neutralization [4] | IC50 (µg/ml), pseudovirus neutralization [5] | IC50 (µg/ml), pseudovirus neutralization [6] | IC50 (µg/ml), pseudovirus neutralization [7] | neutralization IC50 [8] | IC50 (µg/ml), pseudovirus neutralization [9] | IC50 (µg/ml), pseudovirus neutralization [10] | IC50 (µg/ml), pseudovirus neutralization [11] | IC50 (µg/ml), pseudovirus neutralization [12] | IC50 [13] | IC50 (µg/ml), pseudovirus neutralization [14] | IC50 (µg/ml), pseudovirus neutralization [15] | IC50 [16] | IC50 [17] | IC50 (µg/ml), pseudovirus neutralization [18] | neutralization IC50 [19]
1 | 1443_C16 (PG16) (TCN-116) (antibody) | 0.004 µg/mL | 0.27 µg/mL | 0.01 µg/mL | 0.01 µg/mL | 0.29 µg/mL | 0.11 µg/mL | 1.42 µg/mL | < 0.0025 µg/mL | 0.22 µg/mL | > 50 µg/mL | 0.01 µg/mL | 0.04 µg/mL | 0.002 µg/mL | 0.001 µg/mL | 1.13 µg/mL | 5.09 µg/mL | 0.09 µg/mL | > 50 µg/mL | 0.102 µg/mL
2 | 1495_C14 (PGC14) (antibody) | 28.6 µg/mL | > 50 µg/mL | > 50 µg/mL | > 50 µg/mL | 23 µg/mL | > 50 µg/mL | > 50 µg/mL | 0.373 µg/mL | > 50 µg/mL | > 50 µg/mL | > 50 µg/mL | > 50 µg/mL | 12 µg/mL | 15 µg/mL | > 50 µg/mL | > 50 µg/mL | > 50 µg/mL | > 50 µg/mL | > 50 µg/mL
3 | b12 (antibody) | > 50 µg/mL | > 50 µg/mL | 17.1 µg/mL | 0.26 µg/mL | > 50 µg/mL | > 50 µg/mL | 0.07 µg/mL | 0.06 µg/mL | > 50 µg/mL | > 50 µg/mL | > 50 µg/mL | > 50 µg/mL | > 50 µg/mL | 0.21 µg/mL | 6.11 µg/mL | 5.46 µg/mL | 13.9 µg/mL | > 50 µg/mL | 34.1 µg/mL
